Article doi:10.1101/2025.08.15.670619

Target: Full-length Synechococcus PCC 7335 nitric oxide synthase (syNOS) (Synechococcus sp. PCC 7335)
Assay: cryo-EM structure

stoichiometry N: 2
Substance: Full-length Synechococcus PCC 7335 nitric oxide synthase (syNOS) (enzyme)
